Assay [1] has as its target T1, human TROP2-his protein (human, UniProt P09758 27-274).
T1 construct: also called biotin labeled human TROP2-his protein
T1 sequence: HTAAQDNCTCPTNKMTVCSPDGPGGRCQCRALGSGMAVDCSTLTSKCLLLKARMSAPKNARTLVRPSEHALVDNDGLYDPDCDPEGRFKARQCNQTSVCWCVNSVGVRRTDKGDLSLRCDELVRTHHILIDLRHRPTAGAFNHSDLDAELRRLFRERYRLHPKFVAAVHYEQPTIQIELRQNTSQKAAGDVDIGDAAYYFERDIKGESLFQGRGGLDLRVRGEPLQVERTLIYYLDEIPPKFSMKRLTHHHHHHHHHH
The assay is described as follows: SPR Biacore T200; antibody captured on anti-human IgG CM5 chip, TROP2-his as analyte in 2-fold dilutions from 160 nM; 1:1 Langmuir fit. The text has this: (§1) The purified anti-TROP2 mouse monoclonal antibodies (mAbs) were characterized for binding affinity and binding kinetics by Biacore T200 system (GE healthcare, Pittsburgh, PA, USA). Briefly, goat anti-human IgG (GE healthcare, Cat #BR100839, Human Antibody Capture Kit) was covalently linked to a CM5 chip (carboxy methyl dextran coated chip from GE healthcare #BR100530) via primary amines, using a standard amine coupling kit (GE healthcare, Pittsburgh, PA, USA) provided by Biacore. Un-reacted moieties on the chip (biosensor) surface were blocked with ethanolamine. The anti-TROP2 antibodies of the disclosure and the benchmark at the concentration of 2 μg/ml were respectively flowed onto the chip at a flow rate of 10 μL/min. Then, serially diluted human TROP2-his protein (prepared in-house with SEQ ID NO: 16), or cynomolgus TROP2-his protein (prepared in-house with SEQ ID NO: 19), 2-fold dilution in HBS-EP⁺ buffer (provided by Biacore) starting at 160 nM, were flowed onto the chip at a flow rate of 30 μL/min. The antigen-antibody association kinetics was followed for 2 minutes and the dissociation kinetics was followed for 10 minutes. The association and dissociation curves were fit to a 1:1 Langmuir binding model using BIAcore evaluation software.

Assay [2] has as its target T2, cynomolgus TROP2-his protein (cynomolgus, UniProt P09758 27-272 (human entry), limits assumed).
T2 construct: also called Cyno TROP2-his; Cynomolgus monkey TROP2-his protein
T2 chain: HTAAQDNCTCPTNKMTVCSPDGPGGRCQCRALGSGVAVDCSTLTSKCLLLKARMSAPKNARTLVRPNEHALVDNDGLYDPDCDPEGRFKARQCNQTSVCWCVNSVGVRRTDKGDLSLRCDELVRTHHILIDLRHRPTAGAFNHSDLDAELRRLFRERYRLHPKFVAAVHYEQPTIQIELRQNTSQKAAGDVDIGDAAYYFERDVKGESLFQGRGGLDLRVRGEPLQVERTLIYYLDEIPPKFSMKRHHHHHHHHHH
The description is as above.
From the text: as §1

Assay [3] concerns the target T1, human TROP2-his protein. The assay is described as follows: indirect ELISA, plate coated with human TROP2-his; unit taken from the x axis (Con of mAb, ng/mL). The protocol: The single domain antibodies of the disclosure were tested in the indirect ELISA for their cross-reaction with cynomolgus TROP2 protein. Briefly, 96-well micro plates were coated with 100 μl 2 μg/ml human TROP2-his protein (prepared in-house with SEQ ID NO: 16) in carbonate/bicarbonate buffer (pH 9.6) overnight at 4° C. ELISA plates were washed once with wash buffer (PBS+0.05% v/v Tween-20, PBST) and then blocked with 200 μl/well blocking buffer (5% w/v non-fatty milk in PBST) for 2 hours at 37° C. Plates were washed 4 times and incubated with 100 μl/well serially diluted anti-TROP2 antibodies of the disclosure or controls (starting at 66.7 nM, 5-fold serial dilution in 2.5% w/v non-fatty milk in PBST) for 40 minutes at 37° C. ELISA plates were washed 4 times again and incubated with Peroxidase AffiniPure F(ab′)₂ Fragment Goat Anti-Human IgG, Fey fragment specific (Jackson Immuno Research, Cat #109-036-098, 1:5000 dilution in PBST buffer, 100 μl/well) for 40 minutes at 37° C. After a final wash, plates were incubated with 100 μl/well TMB (Innoreagents) at room temperature. The reaction was stopped 3-10 minutes later at room temperature with 50 μl/well 1M H₂SO₄, and the absorbance of each well was read on a microplate reader using dual wavelength mode with 450 nm for TMB and 630 nm as the reference wavelength. The OD (450-630) values were plotted against antibody concentration. Data was analyzed using Graphpad Prism software and EC₅₀ values were reported.
A general note: An ELISA detects its analyte on a solid surface through an enzyme-linked reagent.

Assay [4] deals with T1, human TROP2-his protein. Description: competitive ELISA: antibody pre-mixed with biotin labeled human TROP2-his, added to plate coated with the benchmark (sacituzumab analog); unit taken from the x axis (ng/mL). The procedure:
The anti-TROP2 antibodies were tested for their epitope binding in a competitive ELISA assay. Briefly, 100 μl of the benchmark at 1 μg/mL in PBS was coated on 96-well micro plates for 2 hours at 37° C. ELISA plates were washed once with wash buffer (PBS+0.05% v/v Tween-20, PBST) and then blocked with 200 μl blocking buffer (5% w/v non-fatty milk in PBST) for 2 hours at 37° C. While blocking, the anti-TROP2 antibodies of the disclosure or controls were diluted with biotin labeled human TROP2-his protein (SEQ ID NO: 16, 34 ng/mL in 2.5% w/v non-fatty milk in PBST), starting at 80 nM with a 5-fold serial dilution, and incubated at room temperature for 40 minutes. After plate washing 4 times, the antibody/TROP2-his protein mixtures were added to benchmark coated plates, 100 μl per well. After incubation at 37° C. for 40 minutes, plates were washed 4 times again using wash buffer. Then the plates were added and incubated with 100 μl Peroxidase Streptavidin (1:10000 dilution in PBST buffer, Jackson Immunoresearch, Cat #016-030-084) for 40 minutes at 37° C. Plates were washed again using wash buffer. […] The absorbance of each well was read on a microplate reader using dual wavelength mode with 450 nm for TMB and 630 nm as the reference wavelength, and the OD (450-630) values were plotted against antibody concentration. Data was analyzed using Graphpad Prism software and IC₅₀ values were reported.

Assay [5] has as its target T1, human TROP2-his protein. The assay is described as follows: indirect ELISA, plate coated with 1 ug/ml TROP2-his; bacterial culture supernatant. The procedure: (§2) ELISA plates were coated with 100 μl 1 μg/ml human TROP2-his protein (in house made with SEQ ID NO: 16), or 1 μg/ml cynomolgus TROP2-his protein (in house made with SEQ ID NO: 19) in carbonate/bicarbonate buffer (pH 9.6) overnight at 4° C., washed once with wash buffer (PBS+0.05% v/v Tween-20, PBST) and then blocked with 200 μl/well blocking buffer (5% w/v non-fatty milk in PBST) for 2 hours at 37° C. Plates were washed 4 times, and respectively incubated with 100 μl bacterial culture supernatant, and sacituzumab (used as the benchmark, also referred to as BM or BM1 hereinafter, in house made with heavy chain and light chain amino acid sequences set forth in SEQ ID NOs: 17 and 18) in 5% w/v non-fatty milk in PBST at 200 ng/ml, for 40 minutes at 37° C. The plates were washed 4 times, and incubated with THE™ HA Tag Antibody [HRP], mAb, Mouse Antibody (1:5000 dilution in PBST, GenScript, Cat #A01296, 100 μl/well, for plates with bacterial culture supernatans of the disclosure) or Peroxidase AffiniPure F(ab′)₂ Fragment Goat Anti-Human IgG, Fey fragment specific (Jackson Immunoresearch, Cat #109-036-098, for plates with the benchmark), for 40 minutes at 37° C. After a final wash, plates were incubated with 100 μl/well ELISA substrate TMB (Innoreagents, Cat #TMB-S-002) at room temperature. The reaction was stopped in 3-10 minutes with 50 μl/well 1M H₂SO₄, and the absorbance of each well was read on a microplate reader using dual wavelength mode with 450 nm for TMB and 630 nm as the reference wavelength. When the OD of a sample well was 2 times higher than the OD of the blank well, the sample can be determined as positive.

In assay [6] the target is T2, cynomolgus TROP2-his protein. Described as above. The procedure: as §2

The text below walks through data of patent publication US20230383007A1 (BIOSION, published 2023).

As a reminder, the Kd is the constant that tells how readily two partners part at equilibrium. As usually defined, the koff is the first-order rate constant of dissociation. A low value points to a long-lived complex. For orientation: kon means the rate constant with which the complex forms. Read a high kon as fast association. As a reminder, the EC50 is the midpoint of the concentration-response curve. Higher therefore signals weaker potency. The term IC50 denotes the point on the concentration scale where inhibition reaches its midpoint.

B1: single domain antibody 01-5A (VHH)
VHH: QVQLVESGGGTVGAGGSLRLSCVVSGLPYERYCVAWFRQGPGKEREGVARILSDGTTSYSDSVKGRFTISKDNAKNTLYLQMNSLKSEDTATYYCAAEAFRPFTPSDGDCTTVLGIDYWGKGTLVTVSS
In the case of B1, in the assay with human TROP2-his protein [1], the affinity, expressed as Kd, was 0.0975 nM; the off-rate constant (koff) is 2.73e-05 s⁻¹; the on-rate (kon) was 280000 M⁻¹ s⁻¹. Also, in assay [2], the Kd came out at 0.647 nM, the koff was found to be 0.000172 s⁻¹ and the kon is 266000 M⁻¹ s⁻¹. In addition, a half-maximal effect with human TROP2-his protein [3] (EC50) was put at 0.0177 µg/mL. The IC50 with human TROP2-his protein [4] was determined as 0.0417 µg/mL. In addition, in the assay with human TROP2-his protein [5], the “Indirect ELISA OD (450-630)” value was 1.03 OD (450-630). For the same molecule, the “Indirect ELISA OD (450-630)” value in assay [6] was 0.56 OD (450-630).
